Experimental data from patent US20230212549A1 (3B PHARMACEUTICALS, published 2023).
Several values for one entry are separate records, joined by “and”; a condition that tells them apart may be missing. Identical values can stand only once. Numbered stars: 1 amine (or outer) side, 2 acyl side, 3 side chain; on linkers, the order of the positions; unused ones are H or OH. Bridge positions count the residues as written; N and C are the ends. Square brackets hold non-standard residues; d marks the D form. Primed or numbered codes have the meaning given here. * marks the point of attachment. Ttds″ = 1,13-diamino-4,7,10-trioxatridecan-succinamic acid spacer, O=C(CCC(=O)[*:2])NCCCOCCOCCOCCCN[*:1]; 3MeBn = 3-Methylbenzylidene (m-xylylene thioether bridge from α,α′-dibromo-m-xylene); Ttds(4) = spacer between chelator and peptide, O=C(CCC(=O)[*:2])NCCCOCCOCCOCCCN[*:1]; N4Ac = 6-Carboxy-1,4,8,11-tetraazaundecane, an N4-chelator, NCCNCC(CNCCN)C(=O)*; NODAGA′ = 1,4,7-triazacyclononane-1-glutaric acid-4,7-diacetic acid chelator; γGlu = O=C(O)[C@H](CCC(=O)[*:2])N[*:1]; mXylylene = c1cc(C[*:1])cc(C[*:2])c1; PPAc = 4-Carboxymethyl piperazine; Tic = O=C(O)[C@@H]1Cc2ccccc2CN1; Nle = CCCC[C@H](N)C(=O)O; PEG6′ = not defined here; Hexanoyl = CCCCCC(=O)*

Assays:
[1] = target: Recombinant human FAP (R&D systems, #3715-SE) (human, UniProt Q12884 26-760); assay: cell-based or functional assay
[2] = target: T1, fibroblast activation protein (FAP) on FAP-expressing human WI-38 fibroblasts (human, UniProt Q12884 1-760); assay: competitive FACS, WI-38 cells, vs Cy5 tracer m3; D = pIC50 <=6.0
T1 construct: also called human FAP

[3] = target: T2, Recombinant human FAP (R&D systems, #3715-SE) (human, UniProt Q12884 26-760); assay: SPR (Biacore T200), FAP captured on anti-FAP antibody, single cycle kinetics
T2 construct: bought; in SPR captured on immobilized anti-FAP antibody MAB3715; also called rhFAP; human recombinant FAP

[4] = target: T3, human fibroblast activation protein (FAP) on WI-38 fibroblasts (human, UniProt Q12884 1-760); assay: competitive FACS, WI-38 cells, Cy5-labeled peptide as competitor; B = pIC50 7.1 to 8.0
T3 construct: FAP-expressing human WI-38 fibroblasts (ECACC)

[5] = target: T4, human fibroblast activating protein (FAP) on WI-38 fibroblasts (human, UniProt Q12884 1-760); assay: competitive FACS on WI-38 cells vs 3 nM Cy5-labeled peptide; pIC50 category B = 7.1-8.0
T4 construct: FAP-expressing human WI-38 fibroblasts (ECACC)

[6] = target: T2, Recombinant human FAP (R&D systems, …); assay: cell-based or functional assay; remark: listed apart in the source

Row | pIC50 [4] [pic50] | pIC50 [5] [pic50] | Binder | further results
1 | 7.1 to 8 | – | N4Ac-E[Ttds″][Nle]CPPTEFC-OH (linker 4-10 via 3MeBn, also called 3BP-4222) [N4Ac-Glu-Ttds-Nle-[Cys-(3MeBn)-Pro-Pro-Thr-Glu-Phe-Cys]-OH] | pKD Category [3]: > 8 pKD
2 | 7.1 to 8 | – | Hexanoyl-CPPTQFCD-NH2 (linker 1-7 via tMeBn(H-AET), also called 3BP-3981) [Hex-[Cys-(tMeBn(H-AET))-Pro-Pro-Thr-Gln-Phe-Cys]-Asp-NH2] | pIC50 Category (Activity) [6]: > 8 pIC50
3 | 7.1 to 8 | – | N4Ac-[PEG6′][Nle]CPPTEFC-OH (linker 3-9 via 3MeBn, also called 3BP-4221) [N4Ac-PEG6-Nle-[Cys-(3MeBn)-Pro-Pro-Thr-Glu-Phe-Cys]-OH] | pKD Category [3]: > 8 pKD
4 | 7.1 to 8 | – | N4Ac-[γGlu][Ttds″][Nle]CPPTEFC-OH (linker 4-10 via mXylylene; SMILES CCCC[C@H](NC(=O)CCC(=O)NCCCOCCOCCOCCCNC(=O)CC[C@H](NC(=O)C(CNCCN)CNCCN)C(=O)O)C(=O)N[C@H]1CSCc2cccc(c2)CSC[C@@H](C(=O)O)NC(=O)[C@H](Cc2ccccc2)NC(=O)[C@H](CCC(=O)O)NC(=O)[C@H]([C@@H](C)O)NC(=O)[C@@H]2CCCN2C(=O)[C@@H]2CCCN2C1=O, also called 3BP-4247) [N4Ac-gGlu-Ttds-Nle-[Cys-(3MeBn)-Pro-Pro-Thr-Glu-Phe-Cys]-OH] | –

Continued, binder first:

Row | Binder | pIC50 [4] [pic50] | pIC50 [5] [pic50] | further results
5 | Hexanoyl-CPPTE[Tic]C-NH2 (linker 1-7 via mXylylene; SMILES CCCCCC(=O)N[C@H]1CSCc2cccc(c2)CSC[C@@H](C(N)=O)NC(=O)[C@@H]2Cc3ccccc3CN2C(=O)[C@H](CCC(=O)O)NC(=O)[C@H]([C@@H](C)O)NC(=O)[C@@H]2CCCN2C(=O)[C@@H]2CCCN2C1=O, also called 3BP-3359) [Hex-[Cys(3MeBn)-Pro-Pro-Thr-Glu-Tic-Cys]-NH2] | – | – | pIC50 Category (Activity) [1]: 6.1 pIC50 and 7 pIC50; pIC50 Category (FACS) [2]: ≤ 6 pIC50
6 | {N4Ac-PEG6′-Ttds(4)}-[Nle]CPPTEFC-OH (linker 2-8 via 3MeBn, also called 3BP-4780) [N4Ac-PEG6-Ttds-Nle-[C(3MeBn)-PPTEFC]-OH] | – | 7.1 to 8 | –
7 | {NODAGA′-Ttds(4)}-[Nle]CPPTEFC-NH2 (linker 2-8 via mXylylene, also called 3BP-4743) [NODAGA-Ttds-Nle-[C(3MeBn)-PPTEFC]-NH2] | – | 7.1 to 8 | –
8 | {N4Ac-PPAc-Ttds(4)}-[Nle]CPPTEFC-OH (linker 2-8 via 3MeBn, also called 3BP-4782) [N4Ac-PPAc-Ttds-Nle-[C(3MeBn)-PPTEFC]-OH] | – | 7.1 to 8 | –
9 | {N4Ac-PPAc-PEG6′}-[Nle]CPPTEFC-OH (linker 2-8 via 3MeBn, also called 3BP-4781) [N4Ac-PPAc-PEG6-Nle-[C(3MeBn)-PPTEFC]-OH] | – | 7.1 to 8 | –
10 | {NODAGA′-Ttds(4)}-[Nle]CPPTEFC-OH (linker 2-8 via mXylylene, also called 3BP-4714) [NODAGA-Ttds-Nle-[C(3MeBn)-PPTEFC]-OH] | – | 7.1 to 8 | –
11 | Hexanoyl-CPPTEFC-OH (linker 1-7 via tMeBn(GaNOPO-AET); also: gallium-NOPO chelator-AET arm on the linker, also called 3BP-4816) [Hex-[C(tMeBn(GaNOPO-AET))-PPTEFC]-OH] | – | 7.1 to 8 | –
12 | Hexanoyl-CPPTEFC-OH (linker 1-7 via tMeBn(NOPO-AET), also called 3BP-4818) [Hex-[C(tMeBn(NOPO-AET))-PPTEFC]-OH] | – | 7.1 to 8 | –
13 | CPPTEFC (N-term Hex-; Cys1 and Cys7 thioether-bridged by tMeBn(NODAGA-AET); C-term -OH, also called 3BP-4695) [Hex-[C(tMeBn(NODAGA-AET))-PPTEFC]-OH] | – | 7.1 to 8 | –
